Test [1] deals with T1, human PD-L1 on CHO-K1 cells (human, UniProt Q9NZQ7 19-290).
T1 construct: whole, on cells; also called CHO-K1/hPDL1; CHO-K1/hPD-L1
The test can be described thus: FACS, CHO-K1/hPD-L1 cells. For orientation: In flow cytometry, cells or beads pass a laser one at a time.

Test [2] concerns the target T2, human 4-1BB on CHO-K1 cells (human, UniProt Q07011 24-255).
T2 construct: whole, on cells; also called CHO-K1/hu 4-1BB; CHO-K1/hu4-1BB
Briefly: FACS, CHO-K1/hu4-1BB cells. As for the experimental part:
The binding abilities of the antibody molecules to a CHO-K1 cell strain highly expressing human 4-1BB (CHO-K1/hu4-1BB, GenScript, M00538) and a CHO-K1 cell strain highly expressing cynomolgus monkey 4-1BB (CHO-K1/cyno4-1BB, GenScript, M00569) were determined by flow cytometry FACS. Specifically, the cells were digested and resuspended in a complete medium, and the cell density was adjusted to 2×10⁶ cells/mL. Then, the cells were seeded in a 96-well V-bottom plate (Corning, #3894) at 100 μL/well (2×10⁵ cells/well) and centrifuged at 4° C. for 5 min, and the supernatant was discarded. Then, the serially diluted antibody molecules were added to the 96-well plate at 100 μL/well, and the mixtures were well mixed. The antibody molecules might serially diluted 3-fold from the highest final concentration 200 nM to obtain a total of 12 concentrations. hIgG1 iso (CrownBio, #C0001) was used as an isotype control. The cells were incubated at 4° C. for 1 h away from light. Then, the cells in each well were rinsed twice with 100 μL of pre-cooled FACS buffer (PBS buffer containing 0.5% BSA) and centrifuged at 500 g at 4° C. for 5 min, and then the supernatant was discarded. […] Then, the cells in each well were then rinsed twice with 200 μL of pre-cooled FACS buffer and centrifuged at 500 g at 4° C. for 5 min, and then the supernatant was discarded. Finally, a pre-cooled FACS buffer was added at 200 μL/well to resuspend the cells. The fluorescence signal values were read using a BD FACS CANTOII flow cytometer.

T1 sequence (Q9NZQ7 19-290): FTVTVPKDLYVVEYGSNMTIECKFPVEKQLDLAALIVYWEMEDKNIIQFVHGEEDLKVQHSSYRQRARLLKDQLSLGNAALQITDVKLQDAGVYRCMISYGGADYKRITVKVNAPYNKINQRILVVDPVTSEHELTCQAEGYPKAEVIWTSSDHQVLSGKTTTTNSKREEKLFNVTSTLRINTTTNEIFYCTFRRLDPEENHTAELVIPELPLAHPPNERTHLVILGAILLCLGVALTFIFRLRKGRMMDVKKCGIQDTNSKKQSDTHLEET
T2 sequence (Q07011 24-255): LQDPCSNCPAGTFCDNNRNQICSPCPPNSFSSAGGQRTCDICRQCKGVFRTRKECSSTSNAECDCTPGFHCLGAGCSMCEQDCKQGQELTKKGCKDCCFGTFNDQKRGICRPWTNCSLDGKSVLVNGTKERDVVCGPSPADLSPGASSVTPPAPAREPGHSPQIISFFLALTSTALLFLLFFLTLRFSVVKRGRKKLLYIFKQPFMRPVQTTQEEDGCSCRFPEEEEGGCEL

B1: PR003549 (bispecific antibody, human IgG1, kappa, L234A L235A)
light: DIQMTQSPSTLSASVGDRVTVTCRASQSIYIWLAWYQQKPGKAPNLLIYKASSLETGVPSRFSGSGSGTEFTLTISSLQPDDFATYYCQQYYGSSRTFGQGTKVEIKRTVAAPSVFIFPPSDEQLKSGTASVVCLLNNFYPREAKVQWKVDNALQSGNSQESVTEQDSKDSTYSLSSTLTLSKADYEKHKVYACEVTHQGLSSPVTKSFNRGEC
heavy: EVQLVESGGGLVQPGGSLRLSCAASGFTFSSYWMSWVRQAPGKGLEWVANIKQEGSEKYYVDSVKGRFTISRDNAKNSLYLQMNSLRAEDTAVYYCARDRAVAGAFDIWGQGTMVTVSSASTKGPSVFPLAPSSKSTSGGTAALGCLVKDYFPEPVTVSWNSGALTSGVHTFPAVLQSSGLYSLSSVVTVPSSSLGTQTYICNVNHKPSNTKVDKKVEPKSCDKTHTCPPCPAPEAAGGPSVFLFPPKPKDTLMISRTPEVTCVVVDVSHEDPEVKFNWYVDGVEVHNAKTKPREEQYNSTYRVVSVLTVLHQDWLNGKEYKCKVSNKALGAPIEKTISKAKGQPREPQVYTLPPSREEMTKNQVSLTCLVKGFYPSDIAVEWESNGQPENNYKTTPPVLDSDGSFFLYSKLTVDKSRWQQGNVFSCSVMHEALHNHYTQKSLSLSPGEPKSSDKTHTPPPPPRTEVQLLESGGGLVQLGGSLRLSCAASGFTFSRYAMTWVRQAPEKGLEWVSSISGSGDDTYYGDSVKGRFTISRDNSQNTVYLQMNSLRAEDTAVYFCAKEKAGTTGDYYYNVDVWGQGTTVTVSS
notes: PD-L1x4-1BB IgG-VH: PR000265 + VH of PR001758 at heavy-chain C-terminus
As to B1, the binding result in test [1] and in test [2] was “binds” throughout.

B2: PR007130 (bispecific antibody, human IgG1, kappa)
light: DIQMTQSPSTLSASVGDRVTVTCRASQSIYIWLAWYQQKPGKAPNLLIYKASSLETGVPSRFSGSGSGTEFTLTISSLQPDDFATYYCQQYYGSSRTFGQGTKVEIKRTVAAPSVFIFPPSDEQLKSGTASVVCLLNNFYPREAKVQWKVDNALQSGNSQESVTEQDSKDSTYSLSSTLTLSKADYEKHKVYACEVTHQGLSSPVTKSFNRGEC
heavy: EVQLVESGGGLVQPGGSLRLSCAASGFTFSSYWMSWVRQAPGKGLEWVANIKQEGSEKYYVDSVKGRFTISRDNAKNSLYLQMNSLRAEDTAVYYCARDRAVAGAFDIWGQGTMVTVSSASTKGPSVFPLAPSSKSTSGGTAALGCLVKDYFPEPVTVSWNSGALTSGVHTFPAVLQSSGLYSLSSVVTVPSSSLGTQTYICNVNHKPSNTKVDKKVEPKSCDKTHTCPPCPAPEAAGAPSVFLFPPKPKDTLMISRTPEVTCVVVDVSHEDPEVKFNWYVDGVEVHNAKTKPREEQYNSTYRVVSVLTVLHQDWLNGKEYKCKVSNKALPAPIEKTISKAKGQPREPQVYTLPPSREEMTKNQVSLTCLVKGFYPSDIAVEWESNGQPENNYKTTPPVLDSDGSFFLYSKLTVDKSRWQQGNVFSCSVMHEALHNHYTQKSLSLSPGGGSGGSEVQLLESGGGLVQPGGSLRLSCAASGFTFSNYAMSWFRQPPETGLKWVSSIDASGGDTYYADSVKGRFTISRDNSKNTLYLQMNSLRAEDTAVYYCAKEGSHGTDDSHYDVDVWGQGTTVTVSS
notes: PD-L1x4-1BB IgG-VH: PR000265 + VH of PR004469 at heavy-chain C-terminus
On to B2, for which the binding result in test [1] and in test [2] was “binds” each time.

B3: PR007132 (bispecific antibody, human IgG1, kappa)
light: DIQMTQSPSTLSASVGDRVTVTCRASQSIYIWLAWYQQKPGKAPNLLIYKASSLETGVPSRFSGSGSGTEFTLTISSLQPDDFATYYCQQYYGSSRTFGQGTKVEIKRTVAAPSVFIFPPSDEQLKSGTASVVCLLNNFYPREAKVQWKVDNALQSGNSQESVTEQDSKDSTYSLSSTLTLSKADYEKHKVYACEVTHQGLSSPVTKSFNRGEC
heavy: EVQLVESGGGLVQPGGSLRLSCAASGFTFSSYWMSWVRQAPGKGLEWVANIKQEGSEKYYVDSVKGRFTISRDNAKNSLYLQMNSLRAEDTAVYYCARDRAVAGAFDIWGQGTMVTVSSASTKGPSVFPLAPSSKSTSGGTAALGCLVKDYFPEPVTVSWNSGALTSGVHTFPAVLQSSGLYSLSSVVTVPSSSLGTQTYICNVNHKPSNTKVDKKVEPKSCDKTHTCPPCPAPEAAGAPSVFLFPPKPKDTLMISRTPEVTCVVVDVSHEDPEVKFNWYVDGVEVHNAKTKPREEQYNSTYRVVSVLTVLHQDWLNGKEYKCKVSNKALPAPIEKTISKAKGQPREPQVYTLPPSREEMTKNQVSLTCLVKGFYPSDIAVEWESNGQPENNYKTTPPVLDSDGSFFLYSKLTVDKSRWQQGNVFSCSVMHEALHNHYTQKSLSLSPGGGSGGSEVQLVESGGGLVKPGGSLRLSCAASGFTFSDYYMSWIRQAPGKGLEWVSYISSSGSTIYYADSVKGRFTISRDNAKNSLYLQMNSLRAEDTAVYYCARVKPVAGTWDWFDPWGQGTPVTVSS
notes: PD-L1x4-1BB IgG-VH: PR000265 + VH of PR007286 at heavy-chain C-terminus
As to B3, the binding result in test [1] and in test [2] was “binds” each time.

B4: PR007136 (bispecific antibody, human IgG1, kappa)
light: DIQMTQSPSTLSASVGDRVTVTCRASQSIYIWLAWYQQKPGKAPNLLIYKASSLETGVPSRFSGSGSGTEFTLTISSLQPDDFATYYCQQYYGSSRTFGQGTKVEIKRTVAAPSVFIFPPSDEQLKSGTASVVCLLNNFYPREAKVQWKVDNALQSGNSQESVTEQDSKDSTYSLSSTLTLSKADYEKHKVYACEVTHQGLSSPVTKSFNRGEC
heavy: EVQLVESGGGLVQPGGSLRLSCAASGFTFSSYWMSWVRQAPGKGLEWVANIKQEGSEKYYVDSVKGRFTISRDNAKNSLYLQMNSLRAEDTAVYYCARDRAVAGAFDIWGQGTMVTVSSASTKGPSVFPLAPSSKSTSGGTAALGCLVKDYFPEPVTVSWNSGALTSGVHTFPAVLQSSGLYSLSSVVTVPSSSLGTQTYICNVNHKPSNTKVDKKVEPKSCDKTHTCPPCPAPEAAGAPSVFLFPPKPKDTLMISRTPEVTCVVVDVSHEDPEVKFNWYVDGVEVHNAKTKPREEQYNSTYRVVSVLTVLHQDWLNGKEYKCKVSNKALPAPIEKTISKAKGQPREPQVYTLPPSREEMTKNQVSLTCLVKGFYPSDIAVEWESNGQPENNYKTTPPVLDSDGSFFLYSKLTVDKSRWQQGNVFSCSVMHEALHNHYTQKSLSLSPGGGSGGSEVQLVESGGGLVKPGGSLRLSCAASGFTFSDYYMSWFRQAPGKGLEWVSYISSSGSTQDYADSVKGRFTISRDNAKNSLYLQMNSLRAEDTAVYYCAREREPVAGTLDFDNWGQGTPVTVSS
notes: PD-L1x4-1BB IgG-VH: PR000265 + VH of PR007289 at heavy-chain C-terminus
On to B4, for which the binding result in test [1] and in test [2] was “binds” in each case.

B5: PR004268 (bispecific antibody, human IgG1, kappa, L234A L235A)
light: DIQMTQSPSTLSASVGDRVTVTCRASQSIYIWLAWYQQKPGKAPNLLIYKASSLETGVPSRFSGSGSGTEFTLTISSLQPDDFATYYCQQYYGSSRTFGQGTKVEIKRTVAAPSVFIFPPSDEQLKSGTASVVCLLNNFYPREAKVQWKVDNALQSGNSQESVTEQDSKDSTYSLSSTLTLSKADYEKHKVYACEVTHQGLSSPVTKSFNRGEC
heavy: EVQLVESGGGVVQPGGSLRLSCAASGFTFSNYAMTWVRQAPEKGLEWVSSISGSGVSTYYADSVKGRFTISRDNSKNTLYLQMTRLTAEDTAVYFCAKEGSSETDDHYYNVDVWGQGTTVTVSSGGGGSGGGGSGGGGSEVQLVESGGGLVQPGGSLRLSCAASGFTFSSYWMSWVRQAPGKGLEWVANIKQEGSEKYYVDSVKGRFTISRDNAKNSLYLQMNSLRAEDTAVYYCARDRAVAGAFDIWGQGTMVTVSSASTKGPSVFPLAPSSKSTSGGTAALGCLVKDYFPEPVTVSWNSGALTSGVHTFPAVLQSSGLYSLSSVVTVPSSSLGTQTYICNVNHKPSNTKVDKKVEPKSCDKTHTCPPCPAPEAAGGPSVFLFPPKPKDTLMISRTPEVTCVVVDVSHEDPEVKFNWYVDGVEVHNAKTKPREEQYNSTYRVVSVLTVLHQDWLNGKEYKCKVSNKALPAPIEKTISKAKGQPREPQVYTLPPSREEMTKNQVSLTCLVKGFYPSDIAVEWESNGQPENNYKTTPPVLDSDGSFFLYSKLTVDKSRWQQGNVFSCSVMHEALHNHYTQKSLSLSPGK
notes: PD-L1x4-1BB IgG-VH: VH of PR001760 at heavy-chain N-terminus of PR000265, linker GS_15
On to B5, for which the binding result in test [1] is “binds”.

B6: PR003551 (bispecific antibody, human IgG1, kappa, L234A L235A)
light: DIQMTQSPSTLSASVGDRVTVTCRASQSIYIWLAWYQQKPGKAPNLLIYKASSLETGVPSRFSGSGSGTEFTLTISSLQPDDFATYYCQQYYGSSRTFGQGTKVEIKRTVAAPSVFIFPPSDEQLKSGTASVVCLLNNFYPREAKVQWKVDNALQSGNSQESVTEQDSKDSTYSLSSTLTLSKADYEKHKVYACEVTHQGLSSPVTKSFNRGEC
heavy: EVQLVESGGGLVQPGGSLRLSCAASGFTFSSYWMSWVRQAPGKGLEWVANIKQEGSEKYYVDSVKGRFTISRDNAKNSLYLQMNSLRAEDTAVYYCARDRAVAGAFDIWGQGTMVTVSSASTKGPSVFPLAPSSKSTSGGTAALGCLVKDYFPEPVTVSWNSGALTSGVHTFPAVLQSSGLYSLSSVVTVPSSSLGTQTYICNVNHKPSNTKVDKKVEPKSCDKTHTCPPCPAPEAAGGPSVFLFPPKPKDTLMISRTPEVTCVVVDVSHEDPEVKFNWYVDGVEVHNAKTKPREEQYNSTYRVVSVLTVLHQDWLNGKEYKCKVSNKALGAPIEKTISKAKGQPREPQVYTLPPSREEMTKNQVSLTCLVKGFYPSDIAVEWESNGQPENNYKTTPPVLDSDGSFFLYSKLTVDKSRWQQGNVFSCSVMHEALHNHYTQKSLSLSPGEPKSSDKTHTPPPPPRTEVQLLESGGGLVQPGGSLRLSCAASGFIFSNFAMTWVRQPPEKGLKWVSSINGSGFNTYYTDSVKGRFTISRDNSRNTLYLQMNRLTAEDTAVYFCAKEGSSETDDHYYNVDVWGQGTTVTVSS
notes: PD-L1x4-1BB IgG-VH: PR000265 + VH of PR001836 at heavy-chain C-terminus
On to B6, for which the binding result in test [1] and in test [2] was “binds” each time.

B7: PR007133 (bispecific antibody, human IgG1, kappa)
light: DIQMTQSPSTLSASVGDRVTVTCRASQSIYIWLAWYQQKPGKAPNLLIYKASSLETGVPSRFSGSGSGTEFTLTISSLQPDDFATYYCQQYYGSSRTFGQGTKVEIKRTVAAPSVFIFPPSDEQLKSGTASVVCLLNNFYPREAKVQWKVDNALQSGNSQESVTEQDSKDSTYSLSSTLTLSKADYEKHKVYACEVTHQGLSSPVTKSFNRGEC
heavy: EVQLVESGGGLVQPGGSLRLSCAASGFTFSSYWMSWVRQAPGKGLEWVANIKQEGSEKYYVDSVKGRFTISRDNAKNSLYLQMNSLRAEDTAVYYCARDRAVAGAFDIWGQGTMVTVSSASTKGPSVFPLAPSSKSTSGGTAALGCLVKDYFPEPVTVSWNSGALTSGVHTFPAVLQSSGLYSLSSVVTVPSSSLGTQTYICNVNHKPSNTKVDKKVEPKSCDKTHTCPPCPAPEAAGAPSVFLFPPKPKDTLMISRTPEVTCVVVDVSHEDPEVKFNWYVDGVEVHNAKTKPREEQYNSTYRVVSVLTVLHQDWLNGKEYKCKVSNKALPAPIEKTISKAKGQPREPQVYTLPPSREEMTKNQVSLTCLVKGFYPSDIAVEWESNGQPENNYKTTPPVLDSDGSFFLYSKLTVDKSRWQQGNVFSCSVMHEALHNHYTQKSLSLSPGGGSGGSEVQLEESGGGLVKPGGSLRLSCAASGFTFSDYYMSWFRQAPGKGLEWVSYISSSGSITDYADAVKGRFNISRDNAKNSLYLQMNSLRAEDTAVYYCAREREAVAGTLDFDNWGQGTLVTVSS
notes: PD-L1x4-1BB IgG-VH: PR000265 + VH of PR007287 at heavy-chain C-terminus
Consider B7, for which the binding result in test [1] and in test [2] was “binds” each time.

These data come from patent US20230242658A1 (published 2023).
